# Results: IntAct's records for PubMed 28533443
# B1: Complement factor H-related protein 1 (Homo sapiens), Q03591 (parent)
# chain: MWLLVSVILISRISSVGGEATFCDFPKINHGILYDEEKYKPFSQVPTGEVFYYSCEYNFVSPSKSFWTRITCTEEGWSPTPKCLRLCFFPFVENGHSESSGQTHLEGDTVQIICNTGYRLQNNENNISCVERGWSTPPKCRSTDTSCVNPPTVQNAHILSRQMSKYPSGERVRYECRSPYEMFGDEEVMCLNGNWTEPPQCKDSTGKCGPPPPIDNGDITSFPLSVYAPASSVEYQCQNLYQLEGNKRITCRNGQWSEPPKCLHPCVISREIMENYNIALRWTAKQKLYLRTGESAEFVCKRGYRLSSRSHTLRTTCWDGKLEYPTCAKR
# partner: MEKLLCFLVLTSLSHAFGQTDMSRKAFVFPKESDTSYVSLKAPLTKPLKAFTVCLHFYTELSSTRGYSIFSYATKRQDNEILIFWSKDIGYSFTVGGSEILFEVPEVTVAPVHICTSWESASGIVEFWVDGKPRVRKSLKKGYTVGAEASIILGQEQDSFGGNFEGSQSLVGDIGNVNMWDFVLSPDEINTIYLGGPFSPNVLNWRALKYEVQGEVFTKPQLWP
# Variants of: B1
# Conditions: with crp_human CRP
row,effect of a mutation on the interaction,Variant
1,with no effect,H157Y;L159V;E175Q
